B1: 10D9 (designed binder)
chain: IEVKDVTDTTALITWSPPLFCCQKTGCELTYGIKDVPGDRTTIDLTEDENQYSIGNLKPDTEYEVSLICFKLTGFLYSKETFTT
notes: Lower case q in the BC loop is a TAG codon read as glutamine in the suppressor strain
B2: 6C7 (designed binder)
chain: IEVKDVTDTTALITWAKPMSCSGYIQGCELTYGIKDVPGDRTTIDLTEDENQYSIGNLKPDTEYEVSLICAKLTGWLCSKETFTT
notes: Lower case q is a TAG codon read as glutamine
B3: 7G11 (designed binder)
chain: IEVKDVTDTTALITWAKPSIVNGFISGCELTYGIKDVPGDRTTIDLTEDENQYSIGNLKPDTEYEVSLICDKCFGAMKSKETFTT
B4: 2H6 (designed binder)
chain: IEVKDVTDTTALITWATPSVFDSHIEGCELTYGIKDVPGDRTTIDLTEDENQYSIGNLKPDTEYEVSLICWKHHGDAWSKETFTT
B5: 6F11 (designed binder)
chain: IEVKDVTDTTALITWSPSVARMLETGCELTYGIKDVPGDRTTIDLTEDENQYSIGNLKPDTEYEVSLICITLCGRGVSKETFTT
B6: 2F4 (designed binder)
chain: IEVKDVTDTTALITWSPCIMVCLRTGCELTYGIKDVPGDRTTIDLTEDENQYSIGNLKPDTEYEVSLICRRGDMSGAPAKETFTT
B7: 5B10 (designed binder)
chain: IEVKDVTDTTALITWSPCLFVCLRTGCELTYGIKDVPGDRTTIDLTEDENQYSIGNLKPDTEYEVSLICRRGDMSGAPAKETFTT
B8: 8B3 (designed binder)
chain: IEVKDVTDTTALITWSPPEYAFYYTGCELTYGIKDVPGDRTTIDLTEDENQYSIGNLKPDTEYEVSLICVKNCGLFSNPAKETFTT
B9: 2F02 (designed binder)
chain: IEVKDVTDTTALITWSPSRGGTSLTGCELTYGIKDVPGDRTTIDLDQVRATYSIGNLKPDTEYEVSLICHTNSGQPSNPAKETFTT
B10: 2G03 (designed binder)
chain: IEVKDVTDTTALITWSPGPLLRHTTGCELTYGIKDVPGDRTTIDLRPIPRAYSIGNLKPDTEYEVSLICRNRPQQSNPAKETFTT
B11: 2D3 (designed binder)
chain: IEVKDVTDTTALITWSPGGFQKITTGCELTYGIKDVPGDRTTIDLVNRRNHYSIGNLKPDTEYEVSLICLTYKARAISKETFTT
B12: 1C12 (designed binder)
chain: IEVKDVTDTTALITWAKPEKWDGSIYGCELTYGIKDVPGDRTTIDLNSRHTAYSIGNLKPDTEYEVSLICFTPYGAKSNPAKETFTT
notes: also called monomeric 1C12
B13: 3B11 (designed binder)
chain: IEVKDVTDTTALITWSPCQLLALITGCELTYGIKDVPGDRTTIDLNSRHYHYSIGNLKPDTEYEVSLICYTSTGQRSNPAKETFTT
B14: 1B12 (designed binder)
chain: IEVKDVTDTTALITWAKPRQGGSNISGCELTYGIKDVPGDRTTIDLYHKGLHYSIGNLKPDTEYEVSLICPKMTGYTYSKETFTT
B15: 2A12 (designed binder)
chain: IEVKDVTDTTALITWSPCCQEFTLTGCELTYGIKDVPGDRTTIDLHNHHHHYSIGNLKPDTEYEVSLICITDAGNKSNPAKETFTT
B16: 1E05 (designed binder)
chain: IEVKDVTDTTALITWSPCSPCQLVTGCELTYGIKDVPGDRTTIDLSCTRAKYSIGNLKPDTEYEVSLICINKLGDTSNPAKETFTT
B17: 1D8 (designed binder)
chain: IEVKDVTDTTALITWSPCQMLSSLTGCELTYGIKDVPGDRTTIDLNIERPKYSIGNLKPDTEYEVSLICFTMTGYRSNPAKETFTT
B18: 1C06 (designed binder)
chain: IEVKDVTDTTALITWSPRMYTWIQTGCELTYGIKDVPGDRTTIDLTHLSGSYSIGNLKPDTEYEVSLICLKLTRTHISKETFTT
B19: 1E03 (designed binder)
chain: IEVKDVTDTTALITWAAPFFGSSYISGCELTYGIKDVPGDRTTIDLHYYVTRYSIGNLKPDTEYEVSLICVNLSGHMPSKETFTT
notes: also called 1E3
B20: 2B04 (designed binder)
chain: IEVKDVTDTTALITWAPPMLTDSEINGCELTYGIKDVPGDRTTIDLTSSYWSYSIGNLKPDTEYEVSLICSTLRRNAISKETFTT
notes: also called 2B4
B21: 2A11 (designed binder)
chain: IEVKDVTDTTALITWSPPFRAGHVTGCELTYGIKDVPGDRTTIDLVTARCQYSIGNLKPDTEYEVSLICTTGNGLRSNPAKETFTT
B22: 1B04 (designed binder)
chain: IEVKDVTDTTALITWSPSHGVESSTGCELTYGIKDVPGDRTTIDLHGLQRVYSIGNLKPDTEYEVSLICAKICGHLVSKETFTT
B23: 1H05 (designed binder)
chain: IEVKDVTDTTALITWSPGMFDQVRTGCELTYGIKDVPGDRTTIDLGKYWERYSIGNLKPDTEYEVSLICRNQYGQHQSKETFTT
B24: 1C10 (designed binder)
chain: IEVKDVTDTTALITWSPCCPYDRYTGCELTYGIKDVPGDRTTIDLQSSRSHYSIGNLKPDTEYEVSLICITTFGHVSNPAKETFTT
B25: 1G11 (designed binder)
chain: IEVKDVTDTTALITWSWAQANPGGCELTYGIKDVPGDRTTIDLWHSITFYSIGNLKPDTEYEVSLICKTKVQSSNPAKETFTT
B26: 1A03 (designed binder)
chain: IEVKDVTDTTALITWAPPPFSNSCIIGCELTYGIKDVPGDRTTIDLRPGRASYSIGNLKPDTEYEVSLICSTGTGLPSNPAKETFTT
B27: 2F08 (designed binder)
chain: IEVKDVTDTTALITWSHAGGIRIGCELTYGIKDVPGDRTTIDLHVWQVYYSIGNLKPDTEYEVSLICMTPYLLGNPAKETFTT
B28: D1-Fc (Fc fusion)
chain: IEVKDVTDTTALITWSPGERIWMFTGCELTYGIKDVPGDRTTIDLTEDENQYSIGNLKPDTEYEVSLICPNYERISNPAKETFTTGA
notes: not shown: hinge and Fc region of human IgG1
B29: D1-Cκ/D1-IGHG1 (other)
light: IEVKDVTDTTALITWSPGERIWMFTGCELTYGIKDVPGDRTTIDLTEDENQYSIGNLKPDTEYEVSLICPNYERISNPAKETFTTGGGTPT
heavy: IEVKDVTDTTALITWSPGERIWMFTGCELTYGIKDVPGDRTTIDLTEDENQYSIGNLKPDTEYEVSLICPNYERISNPAKETFTTGGGTPT
notes: Control two chain tetravalent construct of D1; not shown: human C-kappa region (constant region of an antibody kappa light chain); heavy chain constant region of human IgG1 (IGHG1)
B30: SynBP01-Fc (Fc fusion)
chain: IEVKDVTDTTALITWSPPSVLVGYTIELTYGIKDVPGDRTTIDLTEDENQYSIGNLKPDTEYEVSLISVTEFGRRRSKETFTT
notes: Chimeric fusion made in 293EBNA cells from pOE-SynBP01; Called bivalent; also called SynBP01 scaffold fused to an Fc region; not shown: CH2 and CH3 domains of IgG1 Fc from the pOE-Fc vector
B31: SynBP01 (designed binder)
chain: AAIEVKDVTDTTALITWSPPSVLVGYTIELTYGIKDVPGDRTTIDLTEDENQYSIGNLKPDTEYEVSLISVTEFGRRRSKETFTTGGGTLEHHHHHH
notes: also called SYNAGIS® specific Tn3 scaffold
B32: 5E5 (designed binder)
chain: IEVKDVTDTTALITWSLAPGYRLGCELTYGIKDVPGDRTTIDLTEDENQYSIGNLKPDTEYEVSLICVKLCMRGNPAKETFTT
notes: also called TRAIL-R2 specific clone 5E5

Target: T1, TRAIL-R2/Fc fusion protein (R & D Systems) (UniProt O14763 54-182, limits assumed)
T1 construct: not shown: Fc part of the bought fusion; captured with anti-human IgG Fc antibody
T1 sequence (O14763 54-182 limits assumed): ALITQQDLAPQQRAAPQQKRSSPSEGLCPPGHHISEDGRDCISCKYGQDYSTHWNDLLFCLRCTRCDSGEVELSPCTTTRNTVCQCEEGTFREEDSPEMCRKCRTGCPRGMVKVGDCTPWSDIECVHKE
Assay: TRAIL-R2 phage ELISA

**Q.** Does B1 bind?
**A.** Result: binds

**Q.** Does B2 bind?
**A.** Result: binds

**Q.** Does B3 bind?
**A.** Result: binds

**Q.** Does B4 bind?
**A.** Result: binds

**Q.** Does B5 bind?
**A.** Result: binds

**Q.** Does B6 bind?
**A.** Result: binds

**Q.** Does B7 bind?
**A.** Result: binds

**Q.** Does B8 bind?
**A.** Result: binds

Target: T1, TRAIL-R2/Fc fusion protein (R & D …)
Assay: TRAIL-R2 phage ELISA
Remark: another data set of the same source

**Q.** Does B9 bind?
**A.** Result: binds

**Q.** Does B10 bind?
**A.** Result: binds

**Q.** Does B11 bind?
**A.** Result: binds

**Q.** Does B12 bind?
**A.** Result: binds

**Q.** Does B13 bind?
**A.** Result: binds

**Q.** Does B14 bind?
**A.** Result: binds

**Q.** Does B15 bind?
**A.** Result: binds

**Q.** Does B16 bind?
**A.** Result: binds

**Q.** Does B17 bind?
**A.** Result: binds

**Q.** Does B18 bind?
**A.** Result: binds

**Q.** Does B19 bind?
**A.** Result: binds

**Q.** Does B20 bind?
**A.** Result: binds

**Q.** Does B21 bind?
**A.** Result: binds

**Q.** Does B22 bind?
**A.** Result: binds

**Q.** Does B23 bind?
**A.** Result: binds

**Q.** Does B24 bind?
**A.** Result: binds

**Q.** Does B25 bind?
**A.** Result: binds

**Q.** Does B26 bind?
**A.** Result: binds

**Q.** Does B27 bind?
**A.** Result: binds

Target: T1, TRAIL-R2/Fc fusion protein (R & D …)
Assay: Attana biosensor, TRAIL-R2 chip
Protocol: A qualitative comparison of binding by monomeric 1C12, 1C12-Fc and 1C12-Cκ/1C12-IGHG1 proteins was performed by injecting samples of each of these proteins over a TRAIL-R2 chip on an Attana biosensor instrument.

**Q.** Does B28 bind?
**A.** Result: no binding

**Q.** Does B29 bind?
**A.** Result: no binding

Target: SYNAGIS®
Sequence (VH, as listed by the source, chain 1 of 2): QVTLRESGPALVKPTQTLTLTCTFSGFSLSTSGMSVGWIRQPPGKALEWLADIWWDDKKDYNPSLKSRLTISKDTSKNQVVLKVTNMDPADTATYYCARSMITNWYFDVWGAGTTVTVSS
Sequence (VL, as listed by the source, chain 2 of 2): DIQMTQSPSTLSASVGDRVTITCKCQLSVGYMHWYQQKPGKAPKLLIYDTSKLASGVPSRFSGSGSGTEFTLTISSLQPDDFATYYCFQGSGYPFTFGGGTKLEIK
Assay: SPR (BIAcore 3000), SYNAGIS® immobilized, both injected at 1 µM

**Q.** For B30, which “fold increase in total response units compared to SynBP01” value is on record?
**A.** Its value is ~6 fold.

Target: SYNAGIS®
Assay: SPR (BIAcore 3000), SYNAGIS® amine-coupled to the chip, equilibrium binding of SynBP01

**Q.** How did the Kd turn out when B31 was run?
**A.** The Kd was 16 µM.

Target: T1, TRAIL-R2/Fc fusion protein (R & D …)
Assay: SPR (BIAcore), TRAIL-R2/Fc captured on goat anti-human-Fc IgG, 5E5 injected; from kon and koff
Protocol: Goat anti-human-Fc IgG was immobilized at a density of ˜7700 RUs onto a flow cell of a CM5 Biacore sensor chip surfaces using a standard amino coupling protocol (BIAcore, Inc.). Separately, a blank surface was also prepared on the same chip using the identical coupling protocol, minus the protein. This blank surface was used as a reference cell throughout the experiment, and served to correct for both non-specific binding and certain housekeeping artifacts.
After baseline stabilization, solutions of the Tn3 clone 5E5 (Table 7) were injected over both the captured ligand and control surfaces. Between injections, the Fc-capture surface was regenerated with two 1 min. injections of 10 mM Gly, pH2.
Several buffer and control protein injections were also interspersed throughout the injection series. Later, these buffer injections were used, along with the reference cell data, to correct the raw data sets for injection artifacts and/or non-specific ‘binding’ through a technique commonly referred to as “double-referencing.” (Myszka, D. G. (1999) J. Mol. Recognit. 12, pp. 279-284). Sensorgram overlays of the fully corrected data were generated using the BIAevaluation 4.1 software (BIAcore, Inc, Uppsala, Sweden). The affinity of 5E5 for binding to TRAIL-R2 was calculated by measuring the kₒₙ and koff.values in the BIAevaluation software for the sensorgram shown in FIG. 13.

**Q.** How did the Kd turn out when B32 was run?
**A.** The Kd was ~0.7 µM.
